B1: Pf12 D1D2 (residues 28-304), untagged [Plasmodium falciparum] / octa-histidine tagged Pf41 D1D2 (residues 21-368) [Plasmodium falciparum] (parent complex)
chain 1: NLTCDFNDVYKLEFHPNQQTSVTKLCNLTPNVLEKVTIKCGSDKLNYNLYPPTCFEEVYASRNMMHLKKIKEFVIGSSMFMRRSLTPNKINEVSFRIPPNMMPEKPIYCFCENKKTITINGSNGNPSSKKDIINRGIVEIIIPSLNEKVKGCDFTTSESTIFSKGYSINEISNKSSNNQQDIVCTVKAHANDLIGFKCPSNYSVEPHDCFVSAFNLSGKNENLENKLKLTNIIMDHYNNTFYSRLPSLISDNWKFFCVCSKDNEKKLVFTVEASISS
chain 2: KSHKCDFTKEKYLLSGEKEVSCEIDANPSDDITFICPNKIDSLCFHTVNISKNINQNKSTMSIQDLLYGSVVYGNTLFISPYVRTNTPFYCFCNLDTVTIQKFLKINRFLKDDDELSEADVMKHLKGGNVSEAQADEYLNKALNRFKKMKDLSKFFNDQADNTTKLNLPKSLNIPNDILNYDVYNSSNNRNDIVVKDEVTNKQIISKRGIMSVFVRSNNNVIKGCDFGNNNKNYFSHPISVAGKVNNKVCKIQGKPGELVGFKCAFEENGKVEPPNCFDQVLHKNKVTDLKTLIPGYASYTNKHSSKYPYYLKIPHFVNEQYTIQCKCKSNNSQNEYTFELDIQPGES

Variants of: B1
Test: BLI; mutant at 1000 nM, 500 nM, and 250 nM; binding to immobilised WT Pf41; parent: 100; read off a plot

Point of comparison: chain 1 NLTCDFNDVYKLEFHPNQQTSVTKLCNLTPNVLEKVTIKCGSDKLNYNLYPPTCFEEVYASRNMMHLKKIKEFVIGSSMFARRSLTPNKINEVSFRIPPNMMPEKPIYCFCENKKTITINGSNGNPSSKKDIINRGIVEIIIPSLNEKVKGCDFTTSESTIFSKGYSINEISNKSSNNQQDIVCTVKAHANDLIGFKCPSNYSVEPHDCFVSAFNLSGKNENLENKLKLTNIIMDHYNNTFYSRLPSLISDNWKFFCVCSKDNEKKLVFTVEASISS [chain 1 M81A], percent of parent ~22 % WT. Against it:
- chain 1 NLTCDFNDVYKLEFHPNQQTSVTKLCNLTPNVLEKVTIKCGSDKLNYNLYPPTCFEEVYASRNMMHLKKIKEFVIGSSAFMRRSLTPNKINEVSFRIPPNMMPEKPIYCFCENKKTITINGSNGNPSSKKDIINRGIVEIIIPSLNEKVKGCDFTTSESTIFSKGYSINEISNKSSNNQQDIVCTVKAHANDLIGFKCPSNYSVEPHDCFVSAFNLSGKNENLENKLKLTNIIMDHYNNTFYSRLPSLISDNWKFFCVCSKDNEKKLVFTVEASISS [chain 1 M79A] — higher, ~27 % WT
- chain 1 NLTCDFNDVYKLEFHPNQQTSVTKLCNLTPNVLEKVTIKCGSDKLNYNLYPPTCFEEVYASRNMMHLKKIKEFVIGSSMFMRRSLTPNKINEVSFRIPPNMMPEKPIYCFCENKKTITINGSNGNPSSKKDIINRGIVEIIIPSLNEKVKGCDFTTSESTIFSKGYSINEISNKSSNNQQDIVCTVKAHANDLIGFKCPSNYSVEPHDCFVSALNLSGKNENLENKLKLTNIIMDHYNNTFYSRLPSLISDNWKFFCVCSKDNEKKLVFTVEASISS [chain 1 F214L] — higher, ~67 % WT

Reference: PMC8930183, “Structure of the Pf12 and Pf41 heterodimeric complex of Plasmodium falciparum 6-cysteine proteins” (FEMS Microbes, 2022)
